In paper PMC5340911:

T1: Pab2 (nuclear poly(A) binding protein) (Schizosaccharomyces pombe, UniProt O14327 1-166)
T1 sequence: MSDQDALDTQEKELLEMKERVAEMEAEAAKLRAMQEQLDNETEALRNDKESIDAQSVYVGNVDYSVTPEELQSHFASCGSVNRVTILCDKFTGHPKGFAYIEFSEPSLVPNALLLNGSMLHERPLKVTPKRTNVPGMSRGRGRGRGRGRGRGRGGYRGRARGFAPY

T2: PABPN1 (His-PABPN1) (bovine, UniProt Q28165 1-306)
T2 sequence: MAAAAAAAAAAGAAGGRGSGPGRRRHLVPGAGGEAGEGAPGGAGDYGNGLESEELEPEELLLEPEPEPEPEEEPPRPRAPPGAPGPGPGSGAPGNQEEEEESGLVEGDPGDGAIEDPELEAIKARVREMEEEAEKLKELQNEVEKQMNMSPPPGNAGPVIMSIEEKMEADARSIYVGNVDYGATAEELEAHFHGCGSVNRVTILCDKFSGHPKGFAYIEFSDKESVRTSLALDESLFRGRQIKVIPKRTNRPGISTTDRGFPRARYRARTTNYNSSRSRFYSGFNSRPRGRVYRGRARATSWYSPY


Assays:
Experiment in all cases: filter binding
[1] = target: T1, Pab2 (nuclear poly(A) binding protein)
PABPN1 (His-PABPN1) = target: T2, PABPN1 (His-PABPN1)
[2] = target: T1, Pab2 (nuclear poly(A) binding protein); remark: listed apart in the source

Row | Binder | binding result [1] | binding result (PABPN1 (His-PABPN1)) | Kd [2]
1 | A100 (ssRNA) RNA: AAAAAAAAAAAAAAAAAAAAAAAAAAAAAAAAAAAAAAAAAAAAAAAAAAAAAAAAAAAAAAAAAAAAAAAAAAAAAAAAAAAAAAAAAAAAAAAAAAAA | binds | binds | 
2 | AAAAAAAAAAAAAA (ssRNA) [A14] |  |  | 5.3 ± 1.1 nM
